T1: EsCas13d, nuclease-dead (Eubacterium siraeum, UniProt B0MS50, R295A;H300A;R849A;H854A)
T1 sequence: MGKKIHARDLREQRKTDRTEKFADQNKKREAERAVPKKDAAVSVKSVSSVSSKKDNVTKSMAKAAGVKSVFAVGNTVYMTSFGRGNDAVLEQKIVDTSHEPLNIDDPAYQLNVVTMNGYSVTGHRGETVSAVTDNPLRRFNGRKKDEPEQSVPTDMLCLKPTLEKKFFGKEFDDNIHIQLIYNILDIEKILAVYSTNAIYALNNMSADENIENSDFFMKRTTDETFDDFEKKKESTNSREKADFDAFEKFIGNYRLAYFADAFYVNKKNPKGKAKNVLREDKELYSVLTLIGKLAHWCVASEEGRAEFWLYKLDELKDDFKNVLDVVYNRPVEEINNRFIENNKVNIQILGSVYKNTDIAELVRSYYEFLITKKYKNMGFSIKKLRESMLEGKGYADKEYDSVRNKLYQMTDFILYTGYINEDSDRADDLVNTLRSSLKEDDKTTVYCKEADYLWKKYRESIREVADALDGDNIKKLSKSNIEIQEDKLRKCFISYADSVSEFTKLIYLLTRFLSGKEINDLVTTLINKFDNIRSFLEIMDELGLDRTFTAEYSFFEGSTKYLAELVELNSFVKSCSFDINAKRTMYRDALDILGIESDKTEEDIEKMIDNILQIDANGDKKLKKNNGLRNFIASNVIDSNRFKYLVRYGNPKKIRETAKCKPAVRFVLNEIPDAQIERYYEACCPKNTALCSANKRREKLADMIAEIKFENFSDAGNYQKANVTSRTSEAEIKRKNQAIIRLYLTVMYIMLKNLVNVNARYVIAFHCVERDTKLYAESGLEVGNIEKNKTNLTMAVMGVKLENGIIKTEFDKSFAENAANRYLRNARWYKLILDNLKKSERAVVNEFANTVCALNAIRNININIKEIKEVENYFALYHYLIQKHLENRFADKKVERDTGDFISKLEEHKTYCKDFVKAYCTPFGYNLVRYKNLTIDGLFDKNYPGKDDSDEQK


molecular target: T1, EsCas13d, nuclease-dead; assay: crRNA (strand 1, pre-loaded); Mg2+; 40 mM Tris-HCl pH 7.5, 150 mM NaCl, 6 mM MgCl2, 1 mM DTT, 0.1% Tween-20, 0.2 mg/ml BSA; 25 C; 10 min per concentration, then washed; details: tags: His6-TwinStrep-SUMO cleaved; N-terminal SNAP kept (SNAP-Surface 488); label: 3' end held by stalled T7 RNA polymerase

Binder | Kd [nM]
target 1 insU 3' of 18,insG 3' of 8 (mixed) RNA 1: CACCCGUGCAAAAAUGCAGGGGUCUAAAACUGAGCGGAUAACCUCUCUAUGG RNA 2: GGGAAUGGAUCCACAUCUACGAAUUCGUACCAUAUGAGAGGUUAUGCCGCUCACCGAGAUCGGAAGAGCACACGU | 41 ± 4
target 2 MT 5'PFS UAA 3'PFS AUG (mixed) RNA 1: CACCCGUGCAAAAUUGCAGGGGUCUAAAACCUUCUCCAAAUUGUUUCAUCCU RNA 2: GGGAAUGGAUCCACAUCUACGAAUUCUAAAGGAUGAAACAAUUUGGAGAAGAUGAGAUCGGAAGAGCACACGU | 5.6 ± 1.5
target 2 MT 5'PFS UAA 3'PFS AUC (mixed) RNA 1: CACCCGUGCAAAAUUGCAGGGGUCUAAAACCUUCUCCAAAUUGUUUCAUCCU RNA 2: GGGAAUGGAUCCACAUCUACGAAUUCUAAAGGAUGAAACAAUUUGGAGAAGAUCAGAUCGGAAGAGCACACGU | 5.1 ± 0.5
target 2 MT 5'PFS UAA 3'PFS AUA (mixed) RNA 1: CACCCGUGCAAAAUUGCAGGGGUCUAAAACCUUCUCCAAAUUGUUUCAUCCU RNA 2: GGGAAUGGAUCCACAUCUACGAAUUCUAAAGGAUGAAACAAUUUGGAGAAGAUAAGAUCGGAAGAGCACACGU | 4.3 ± 0.6
target 2 MT 5'PFS UAC 3'PFS CUU (mixed) RNA 1: CACCCGUGCAAAAUUGCAGGGGUCUAAAACCUUCUCCAAAUUGUUUCAUCCU RNA 2: GGGAAUGGAUCCACAUCUACGAAUUCUACAGGAUGAAACAAUUUGGAGAAGCUUAGAUCGGAAGAGCACACGU | 7.2 ± 1.1
target 2 MT 5'PFS AAC 3'PFS CAU (mixed) RNA 1: CACCCGUGCAAAAUUGCAGGGGUCUAAAACCUUCUCCAAAUUGUUUCAUCCU RNA 2: GGGAAUGGAUCCACAUCUACGAAUUCAACAGGAUGAAACAAUUUGGAGAAGCAUAGAUCGGAAGAGCACACGU | ~8
target 2 MT 5'PFS UAC 3'PFS CUC (mixed) RNA 1: CACCCGUGCAAAAUUGCAGGGGUCUAAAACCUUCUCCAAAUUGUUUCAUCCU RNA 2: GGGAAUGGAUCCACAUCUACGAAUUCUACAGGAUGAAACAAUUUGGAGAAGCUCAGAUCGGAAGAGCACACGU | 16 ± 6
target 2 MT 5'PFS UAC 3'PFS CUA (mixed) RNA 1: CACCCGUGCAAAAUUGCAGGGGUCUAAAACCUUCUCCAAAUUGUUUCAUCCU RNA 2: GGGAAUGGAUCCACAUCUACGAAUUCUACAGGAUGAAACAAUUUGGAGAAGCUAAGAUCGGAAGAGCACACGU | 6.8 ± 1
target 2 MT 5'PFS UAA 3'PFS AUU (mixed) RNA 1: CACCCGUGCAAAAUUGCAGGGGUCUAAAACCUUCUCCAAAUUGUUUCAUCCU RNA 2: GGGAAUGGAUCCACAUCUACGAAUUCUAAAGGAUGAAACAAUUUGGAGAAGAUUAGAUCGGAAGAGCACACGU | 3.9 ± 0.6
target 2 MT 5'PFS UAC 3'PFS CUG (mixed) RNA 1: CACCCGUGCAAAAUUGCAGGGGUCUAAAACCUUCUCCAAAUUGUUUCAUCCU RNA 2: GGGAAUGGAUCCACAUCUACGAAUUCUACAGGAUGAAACAAUUUGGAGAAGCUGAGAUCGGAAGAGCACACGU | 10.4 ± 1.7
target 2 MT 5'PFS AAC 3'PFS CAC (mixed) RNA 1: CACCCGUGCAAAAUUGCAGGGGUCUAAAACCUUCUCCAAAUUGUUUCAUCCU RNA 2: GGGAAUGGAUCCACAUCUACGAAUUCAACAGGAUGAAACAAUUUGGAGAAGCACAGAUCGGAAGAGCACACGU | 6.2 ± 2
target 1 U3G,U8A (mixed) RNA 1: CACCCGUGCAAAAAUGCAGGGGUCUAAAACUGAGCGGAUAACCUCUCUAUGG RNA 2: GGGAAUGGAUCCACAUCUACGAAUUCGUACCAUAGAGAGGUUAACCGCGCACCGAGAUCGGAAGAGCACACGU | 12 ± 0.6
target 2 MT 5'PFS AAC 3'PFS CAA (mixed) RNA 1: CACCCGUGCAAAAUUGCAGGGGUCUAAAACCUUCUCCAAAUUGUUUCAUCCU RNA 2: GGGAAUGGAUCCACAUCUACGAAUUCAACAGGAUGAAACAAUUUGGAGAAGCAAAGAUCGGAAGAGCACACGU | ~7
target 2 MT 5'PFS AAC 3'PFS CAG (mixed) RNA 1: CACCCGUGCAAAAUUGCAGGGGUCUAAAACCUUCUCCAAAUUGUUUCAUCCU RNA 2: GGGAAUGGAUCCACAUCUACGAAUUCAACAGGAUGAAACAAUUUGGAGAAGCAGAGAUCGGAAGAGCACACGU | 3.6 ± 0.6
target 2 MT 5'PFS AGC 3'PFS CUG (mixed) RNA 1: CACCCGUGCAAAAUUGCAGGGGUCUAAAACCUUCUCCAAAUUGUUUCAUCCU RNA 2: GGGAAUGGAUCCACAUCUACGAAUUCAGCAGGAUGAAACAAUUUGGAGAAGCUGAGAUCGGAAGAGCACACGU | 16.5 ± 3.4
target 2 MT 5'PFS AAU 3'PFS CUC (mixed) RNA 1: CACCCGUGCAAAAUUGCAGGGGUCUAAAACCUUCUCCAAAUUGUUUCAUCCU RNA 2: GGGAAUGGAUCCACAUCUACGAAUUCAAUAGGAUGAAACAAUUUGGAGAAGCUCAGAUCGGAAGAGCACACGU | 7.3 ± 0.8
target 2 MT 5'PFS UUU 3'PFS CCA (mixed) RNA 1: CACCCGUGCAAAAUUGCAGGGGUCUAAAACCUUCUCCAAAUUGUUUCAUCCU RNA 2: GGGAAUGGAUCCACAUCUACGAAUUCUUUAGGAUGAAACAAUUUGGAGAAGCCAAGAUCGGAAGAGCACACGU | 18.1 ± 2.5
target 2 MT 5'PFS AGC 3'PFS CUC (mixed) RNA 1: CACCCGUGCAAAAUUGCAGGGGUCUAAAACCUUCUCCAAAUUGUUUCAUCCU RNA 2: GGGAAUGGAUCCACAUCUACGAAUUCAGCAGGAUGAAACAAUUUGGAGAAGCUCAGAUCGGAAGAGCACACGU | 11.5 ± 2.8
target 2 MT 5'PFS AAU 3'PFS CUG (mixed) RNA 1: CACCCGUGCAAAAUUGCAGGGGUCUAAAACCUUCUCCAAAUUGUUUCAUCCU RNA 2: GGGAAUGGAUCCACAUCUACGAAUUCAAUAGGAUGAAACAAUUUGGAGAAGCUGAGAUCGGAAGAGCACACGU | 4.2 ± 0.5
target 2 MT 5'PFS AGC 3'PFS CUA (mixed) RNA 1: CACCCGUGCAAAAUUGCAGGGGUCUAAAACCUUCUCCAAAUUGUUUCAUCCU RNA 2: GGGAAUGGAUCCACAUCUACGAAUUCAGCAGGAUGAAACAAUUUGGAGAAGCUAAGAUCGGAAGAGCACACGU | 8.6 ± 1.5
target 2 MT 5'PFS AGC 3'PFS CUU (mixed) RNA 1: CACCCGUGCAAAAUUGCAGGGGUCUAAAACCUUCUCCAAAUUGUUUCAUCCU RNA 2: GGGAAUGGAUCCACAUCUACGAAUUCAGCAGGAUGAAACAAUUUGGAGAAGCUUAGAUCGGAAGAGCACACGU | 11.7 ± 1.5
target 2 MT 5'PFS AAU 3'PFS CUU (mixed) RNA 1: CACCCGUGCAAAAUUGCAGGGGUCUAAAACCUUCUCCAAAUUGUUUCAUCCU RNA 2: GGGAAUGGAUCCACAUCUACGAAUUCAAUAGGAUGAAACAAUUUGGAGAAGCUUAGAUCGGAAGAGCACACGU | 9.4 ± 2
target 1 insC 3' of 20,insG 3' of 6 (mixed) RNA 1: CACCCGUGCAAAAAUGCAGGGGUCUAAAACUGAGCGGAUAACCUCUCUAUGG RNA 2: GGGAAUGGAUCCACAUCUACGAAUUCGUACCACUAGAGAGGUUAUCCGGCUCACCGAGAUCGGAAGAGCACACGU | 7.5 ± 0.4
target 2 MT 5'PFS UUU 3'PFS CCU (mixed) RNA 1: CACCCGUGCAAAAUUGCAGGGGUCUAAAACCUUCUCCAAAUUGUUUCAUCCU RNA 2: GGGAAUGGAUCCACAUCUACGAAUUCUUUAGGAUGAAACAAUUUGGAGAAGCCUAGAUCGGAAGAGCACACGU | 52 ± 15
target 2 MT 5'PFS AAU 3'PFS CCG (mixed) RNA 1: CACCCGUGCAAAAUUGCAGGGGUCUAAAACCUUCUCCAAAUUGUUUCAUCCU RNA 2: GGGAAUGGAUCCACAUCUACGAAUUCAAUAGGAUGAAACAAUUUGGAGAAGCCGAGAUCGGAAGAGCACACGU | 5.9 ± 0.7
target 2 MT 5'PFS GAU 3'PFS AUG (mixed) RNA 1: CACCCGUGCAAAAUUGCAGGGGUCUAAAACCUUCUCCAAAUUGUUUCAUCCU RNA 2: GGGAAUGGAUCCACAUCUACGAAUUCGAUAGGAUGAAACAAUUUGGAGAAGAUGAGAUCGGAAGAGCACACGU | 11.8 ± 1.1
target 2 MT 5'PFS GAU 3'PFS AUA (mixed) RNA 1: CACCCGUGCAAAAUUGCAGGGGUCUAAAACCUUCUCCAAAUUGUUUCAUCCU RNA 2: GGGAAUGGAUCCACAUCUACGAAUUCGAUAGGAUGAAACAAUUUGGAGAAGAUAAGAUCGGAAGAGCACACGU | 14 ± 6
target 2 MT 5'PFS GAU 3'PFS AUC (mixed) RNA 1: CACCCGUGCAAAAUUGCAGGGGUCUAAAACCUUCUCCAAAUUGUUUCAUCCU RNA 2: GGGAAUGGAUCCACAUCUACGAAUUCGAUAGGAUGAAACAAUUUGGAGAAGAUCAGAUCGGAAGAGCACACGU | 10.5 ± 1.8

Source: article PMC10786891, “Massively parallel profiling of RNA-targeting CRISPR-Cas13d”
